# Residue numbers refer to the chain shown, from its start. “And” between values parts separate entries of the source, which are not always exact repeats. Equal entries are not always repeated.
# T1: GDF15 (Homo sapiens (Human), UniProt Q99988 30-308)
# T1 sequence: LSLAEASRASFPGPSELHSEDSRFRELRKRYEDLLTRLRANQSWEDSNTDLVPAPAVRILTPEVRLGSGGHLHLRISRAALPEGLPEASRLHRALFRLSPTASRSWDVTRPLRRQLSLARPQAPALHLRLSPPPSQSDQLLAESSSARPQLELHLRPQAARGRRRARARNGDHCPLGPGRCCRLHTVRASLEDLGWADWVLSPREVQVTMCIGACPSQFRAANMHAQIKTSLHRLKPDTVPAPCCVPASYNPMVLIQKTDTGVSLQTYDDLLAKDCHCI
# T2: Cyno GDF15 Fc (cyno, UniProt G7PWZ3 193-308)
# T2 construct: also called cyno GDF15-Fc fusion
# T2 sequence: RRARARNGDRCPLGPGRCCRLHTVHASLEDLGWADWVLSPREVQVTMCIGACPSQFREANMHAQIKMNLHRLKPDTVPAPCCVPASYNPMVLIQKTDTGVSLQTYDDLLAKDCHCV
# T3: Mouse GDF15 Fc (mouse, UniProt Q9Z0J7 189-303, limits assumed)
# T3 construct: also called mouse GDF15Fc fusion
# T3 sequence (looked up): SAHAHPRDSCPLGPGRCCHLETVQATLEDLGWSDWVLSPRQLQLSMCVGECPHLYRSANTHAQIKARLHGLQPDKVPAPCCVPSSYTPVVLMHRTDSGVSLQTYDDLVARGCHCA
# T4: GDNF (UniProt P39905 78-211)
# T4 sequence (looked up): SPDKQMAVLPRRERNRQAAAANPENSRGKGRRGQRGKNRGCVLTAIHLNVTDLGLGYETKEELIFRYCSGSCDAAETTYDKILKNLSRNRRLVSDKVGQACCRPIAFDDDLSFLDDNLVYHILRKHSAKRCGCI
# T5: Human Activin A Fc (human, UniProt P08476 311-426)
# T5 sequence (looked up): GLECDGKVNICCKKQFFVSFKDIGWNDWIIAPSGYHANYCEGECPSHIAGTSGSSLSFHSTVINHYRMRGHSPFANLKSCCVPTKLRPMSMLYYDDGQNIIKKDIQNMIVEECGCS
# T6: Human Activin B (human, UniProt P09529 293-407)
# T6 construct: Also used for the Activin B ligand of the ActRIIB/SMAD reporter assay, where the species is not restated
# T6 sequence (looked up): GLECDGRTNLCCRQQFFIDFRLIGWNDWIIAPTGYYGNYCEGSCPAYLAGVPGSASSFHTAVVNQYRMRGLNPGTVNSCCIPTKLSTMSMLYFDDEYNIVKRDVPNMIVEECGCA
# T7: Human BMP10 (human, UniProt O95393 317-424)
# T7 sequence (looked up): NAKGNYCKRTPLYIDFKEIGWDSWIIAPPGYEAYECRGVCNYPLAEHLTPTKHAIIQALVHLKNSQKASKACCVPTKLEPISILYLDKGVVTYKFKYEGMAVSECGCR
# B1: Clone E Fab (Fab, V domains shown)
# VH: QVQLVQSGAEVKKPGASVKVSCKASGYTFTSYGINWVRQAPGQGLEWMGWITAYSGDTNYAQKLQGRVTMTTDTSTSTAYMELRSLRSDDTAVYYCARGPGQYADVDVWGQGTMVTVSS
# VL: DIQMTQSPSSVSASVGDRVTITCRASQGISSWLAWYQQKPGKAPKLLIYAASSLQSGVPSRFSGSGSGTDFTLTISSLQPEDFATYYCQQANSFPITFGGGTKVEIK
# notes: Fab format
# B2: Clone K Fab (Fab, V domains shown)
# VH: QVQLVQSGAEVKKPGASVKVSCKASGYTFTNEGISWVRQAPGQGLEWMGWISAYTADTFYAQKLQGRVTMTTDTSTSTAYMELRSLRSDDTAVYYCARTRHDTSGLRFDYWGQGTLVTVSS
# VL: B1 VL with S30D, A91V, N92H
# notes: Fab format
# B3: Clone P Fab (Fab, V domains shown)
# VH: QVQLVQSGAEVKKPGATVKVSCKASGYTFDSYGIHWVRQAPGQGLEWMGWITAYSGDTVYAQKLQGRVTMTTDTSTSTAYMELRSLRSDDTAVYYCARESGQTSSALGPWGQGTLVTVSS
# VL: B1 VL with S31R, A91G, N92A, I96L
# notes: Fab format
# B4: Clone L Fab (Fab, V domains shown)
# VH: B2 VH with T30A, N31S, E32Y, G33D, S35I, Y54L, T55S, A56G, F59V, L106I
# VL: B1 VL with S30D, A91V, N92H
# notes: Fab format
# B5: Clone I Fab (Fab, V domains shown)
# VH: B1 VH with S31D, Y32E, N59V
# VL: B1 VL
# notes: Fab format
# B6: Clone J Fab (Fab, V domains shown)
# VH: B1 VH with T52D, D57S
# VL: B1 VL
# notes: Fab format
# B7: Clone H Fab (Fab, V domains shown)
# VH: QVQLVQSGAEVKKPGSSVKVSCKASGGTFSSYYISWVRQAPGQGLEWMGGIAPISGTASYAQKFQGRVTITADESTSTAYMELSSLRSEDTAVYYCARGLAYDGYFDLWGRGTLVTVSS
# VL: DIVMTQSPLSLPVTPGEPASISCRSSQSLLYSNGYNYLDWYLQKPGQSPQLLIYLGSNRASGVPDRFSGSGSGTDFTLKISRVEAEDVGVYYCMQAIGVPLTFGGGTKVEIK
# notes: Fab format
# B8: Clone F IgG (antibody, V domains shown)
# VH: QVQLVQSGAEVKKPGSSVKVSCKASGGTFGGYAISWVRQAPGQGLEWMGGIIPPYATANYAQKFQGRVTITADESTSTAYMELSSLRSEDTAVYYCARGVGTTHLDVWGQGTMVTVSS
# VL: not shown
# notes: IgG format
# B9: Clone F Fab (Fab, V domains shown)
# VH: B8 VH
# VL: not shown
# notes: Fab format
# B10: Clone G Fab (Fab, V domains shown)
# VH: B8 VH with G30Q, V37A, T102E, T103L
# VL: not shown
# notes: Fab format
# B11: Clone N Fab (Fab, V domains shown)
# VH: QVQLVQSGAEVKKPGASVKVSCKASGYTFTDYGIFWVRQAPGQGLEWMGWITAYSGDTHYAQKLQGRVTMTTDTSTSTAYMELRSLRSDDTAVYYCVRDTQYGGSPYWGQGTLVTVSS
# VL: EIVMTQSPATLSVSPGERATLSCRASQSVSSNLAWYQQKPGQAPRLLIYGASTRATGIPARFSGSGSGTEFTLTISSLQSEDFAVYYCQQYNNWPITFGGGTKVEIK
# notes: Fab format
# B12: Clone B Fab (Fab, V domains shown)
# VH: QVQLQESGPGLVKPSQTLSLTCTVSGGSISSGGIYWTWIRQHPGKGLEWIGAIAYSGSTYYNPSLKSRVTISVDTSKNQFSLKLSSVTAADTAVYYCARGIEYQHFDYWGQGTLVTVSS
# VL: not shown
# notes: Fab format
# B13: Clone D Fab (Fab, V domains shown)
# VH: B12 VH with S30N, I34Y, A54Y, Y60V, I101V, D107N, Y108E
# VL: not shown
# notes: Fab format
# B14: Clone A Fab (Fab, V domains shown)
# VH: B12 VH with S30T, I34S, T37S, A54V, I101V
# VL: not shown
# notes: Fab format; also called Fab of Clone A
# B15: Clone C Fab (Fab, V domains shown)
# VH: B12 VH with I34Y, T37S, A54V, S58H, I101V, D107S, Y108L
# VL: not shown
# notes: Fab format; also called Fab of Clone C
# B16: Clone O Fab (Fab, V domains shown)
# VH: B3 VH with Y32L, I34M, H35S, W50Y, T52S, A53T, T103Q, S104V, G108D
# VL: B1 VL with S31R, A91G, N92A, I96L
# notes: Fab format
# B17: Clone T Fab (Fab, V domains shown)
# VH: B1 VH
# VL: B1 VL with N92S, S93Q
# notes: Fab format
# B18: Clone S Fab (Fab, V domains shown)
# VH: B1 VH
# VL: B1 VL with M4L, S31P
# notes: Fab format
# B19: Clone R Fab (Fab, V domains shown)
# VH: B12 VH with K66E
# VL: not shown
# notes: Fab format
# B20: Clone Q Fab (Fab, V domains shown)
# VH: B12 VH
# VL: not shown
# notes: Fab format
# Biological target: T1, GDF15
# Assay: cell-based or functional assay
GDF15 GFRAL RET pERK Fab IC50 pM,GDF15 - GFRAL RET pERK IC50 (pM),GDF15 - GFRAL-RET Luciferase IC50 (pM),Binder
46.7 pM,,,B1
169 pM,,,B2
701 pM and 1000 pM,,,B3
2.1 µM,,,B4
111 pM,,,B5
75.1 pM,,,B6
24.6 pM,,,B7
,34.9 pM,91.3 pM,B8
11.2 pM,,,B9
33.2 pM,,,B10
322 pM,,,B11
30.9 pM,,,B12
27 pM,,,B13
26.5 pM,,,B14
36.8 pM,,,B15

# Biological target: T2, Cyno GDF15 Fc
# Assay: Octet BLI, Fab monovalent
row,Kd,Binder
1,0.413 nM,B1
2,2.4 nM,B2
3,0.277 nM,B16
4,0.369 nM,B17
5,1.72 nM,B3
6,1.56 nM,B4
7,0.252 nM,B18
8,1.38 nM,B5
9,0.769 nM,B6
10,1.42 nM,B7
11,0.553 nM,B9
12,0.474 nM,B10
13,0.349 nM,B12
14,0.366 nM,B19
15,0.562 nM,B13
16,0.536 nM,B14
17,0.327 nM,B20
18,0.36 nM,B15

# Biological target: T3, Mouse GDF15 Fc
# Assay: Octet BLI, Fab monovalent
row,Kd,Binder
1,3.08 nM,B1
2,333 nM,B2
3,11.6 nM,B16
4,1.92 nM,B17
5,229 nM,B4
6,1.36 nM,B18
7,1.45 nM,B5
8,50.9 nM,B7
9,26.1 nM,B9
10,2.56 nM,B11
11,234 nM,B19
12,157 nM,B13
13,204 nM,B20
14,156 nM,B15

# Biological target: T4, GDNF
# Assay: Octet BLI, IgG on tip, avid
row,binding result,Binder
1,no binding (tested: 100 nM),B8

# Biological target: GDF8 (UniProt O14793 267-375)
# Assay: Octet BLI, IgG on tip, avid
row,binding result,Binder
1,no binding (tested: 100 nM),B8

# Biological target: T8, GDF11 (UniProt O95390 299-407)
# T8 construct: Also the GDF-11 ligand of the ActRIIB/SMAD reporter assay
# T8 sequence (O95390 299-407 limits assumed): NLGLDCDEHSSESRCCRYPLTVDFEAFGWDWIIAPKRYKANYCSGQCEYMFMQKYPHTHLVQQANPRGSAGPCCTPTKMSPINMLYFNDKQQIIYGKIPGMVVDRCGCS
# Assay: Octet BLI, IgG on tip, avid
row,binding result,Binder
1,no binding (tested: 100 nM),B8

# Biological target: T5, Human Activin A Fc
# Assay: Octet BLI, IgG on tip, avid
row,binding result,Binder
1,no binding (tested: 100 nM),B8

# Biological target: T6, Human Activin B
# Assay: Octet BLI, IgG on tip, avid
row,binding result,Binder
1,no binding (tested: 100 nM),B8

# Biological target: T7, Human BMP10
# Assay: Octet BLI, IgG on tip, avid
row,binding result,Binder
1,no binding (tested: 100 nM),B8

# Source: patent publication US20250019427A1 (BYOMASS, published 2025)
